# Assay results as given in IntAct's records for PubMed 15637807.
# B1: Caspase recruitment domain-containing protein 19 (Homo sapiens), Q96LW7 (parent)
# chain: MTDQTYCDRLVQDTPFLTGHGRLSEQQVDRIILQLNRYYPQILTNKEAEKFRNPKASLRVRLCDLLSHLQRSGERDCQEFYRALYIHAQPLHSRLPSRHALRKFHITNHACLVLARGGHPSLPLMAWMSSMTTQVCCSPGLASPLASAPPQRPPSGPEGRVWQAQAVQMLVSVSHFLPLPPSLSHGSFHTAWGILYVHSCPSFSNLIPRGSLHVCVDSNLVPTAAWRS
# partner: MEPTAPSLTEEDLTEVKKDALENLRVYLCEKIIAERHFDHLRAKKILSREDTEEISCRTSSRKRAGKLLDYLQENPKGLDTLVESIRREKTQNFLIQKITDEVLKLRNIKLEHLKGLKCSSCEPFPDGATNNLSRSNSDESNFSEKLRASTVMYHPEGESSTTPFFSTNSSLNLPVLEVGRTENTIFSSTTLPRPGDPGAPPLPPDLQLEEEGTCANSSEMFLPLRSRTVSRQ
# Variants of: B1
# Settings: with bcl10_human BCL10, O95999
row,effect of a mutation on the interaction,Variant
1,disrupting interaction,MTDQTYCDRLVQDTPFLTGHGRLSEQQVDRIILQLNRYYPQILTNKEAEKFRNPKASLRVRLCDALSHLQRSGERDCQEFYRALYIHAQPLHSRLPSRHALRKFHITNHACLVLARGGHPSLPLMAWMSSMTTQVCCSPGLASPLASAPPQRPPSGPEGRVWQAQAVQMLVSVSHFLPLPPSLSHGSFHTAWGILYVHSCPSFSNLIPRGSLHVCVDSNLVPTAAWRS [L65A]
